What was measured:
[1] = target: T1, PRC2 5-mer (EZH2-EED-SUZ12-RBBP4-AEBP2) (Homo sapiens, UniProt Q15910-2;O75530;Q15022;Q09028;Q6ZN18 1-751;1-441;1-739;1-425;1-517); assay: fluorescence polarization
[2] = target: T1, PRC2 5-mer (EZH2-EED-SUZ12-RBBP4-AEBP2); assay: EMSA
[3] = target: T1, PRC2 5-mer (EZH2-EED-SUZ12-RBBP4-AEBP2); assay: competition
[4] = target: T1, PRC2 5-mer (EZH2-EED-SUZ12-RBBP4-AEBP2); assay: competition; remark: listed apart in the source

B1: (CG)30 dsDNA (dsDNA)
DNA 1: CGCGCGCGCGCGCGCGCGCGCGCGCGCGCGCGCGCGCGCGCGCGCGCGCGCGCGCGCGCG
DNA 2: B1 DNA 1
- binding result [1]: binds

B2: (mCpG)24 dsDNA (dsDNA)
DNA 1: CGCGCGCGCGCGCGCGCGCGCGCGCGCGCGCGCGCGCGCGCGCGCGCG
DNA 2: B2 DNA 1
modifications: 5-methyl-C at CpG
- Kd [2]: 11.3 ± 6.2 nM

B3: Poly(A)40 RNA (ssRNA)
RNA: AAAAAAAAAAAAAAAAAAAAAAAAAAAAAAAAAAAAAAAA
- binding result [3]: no binding

B4: (GGAA)10 RNA (structured_RNA)
RNA: GGAAGGAAGGAAGGAAGGAAGGAAGGAAGGAAGGAAGGAA
- binding result [4]: binds
